Test results: article PMC12693483, “A screen for synthetic genetic interactions with the Saccharomyces cerevisiae hrq1ΔN allele”

Molecular target: T1, Hrq1 (Saccharomyces cerevisiae, UniProt Q05549 1-1077)
T1 sequence: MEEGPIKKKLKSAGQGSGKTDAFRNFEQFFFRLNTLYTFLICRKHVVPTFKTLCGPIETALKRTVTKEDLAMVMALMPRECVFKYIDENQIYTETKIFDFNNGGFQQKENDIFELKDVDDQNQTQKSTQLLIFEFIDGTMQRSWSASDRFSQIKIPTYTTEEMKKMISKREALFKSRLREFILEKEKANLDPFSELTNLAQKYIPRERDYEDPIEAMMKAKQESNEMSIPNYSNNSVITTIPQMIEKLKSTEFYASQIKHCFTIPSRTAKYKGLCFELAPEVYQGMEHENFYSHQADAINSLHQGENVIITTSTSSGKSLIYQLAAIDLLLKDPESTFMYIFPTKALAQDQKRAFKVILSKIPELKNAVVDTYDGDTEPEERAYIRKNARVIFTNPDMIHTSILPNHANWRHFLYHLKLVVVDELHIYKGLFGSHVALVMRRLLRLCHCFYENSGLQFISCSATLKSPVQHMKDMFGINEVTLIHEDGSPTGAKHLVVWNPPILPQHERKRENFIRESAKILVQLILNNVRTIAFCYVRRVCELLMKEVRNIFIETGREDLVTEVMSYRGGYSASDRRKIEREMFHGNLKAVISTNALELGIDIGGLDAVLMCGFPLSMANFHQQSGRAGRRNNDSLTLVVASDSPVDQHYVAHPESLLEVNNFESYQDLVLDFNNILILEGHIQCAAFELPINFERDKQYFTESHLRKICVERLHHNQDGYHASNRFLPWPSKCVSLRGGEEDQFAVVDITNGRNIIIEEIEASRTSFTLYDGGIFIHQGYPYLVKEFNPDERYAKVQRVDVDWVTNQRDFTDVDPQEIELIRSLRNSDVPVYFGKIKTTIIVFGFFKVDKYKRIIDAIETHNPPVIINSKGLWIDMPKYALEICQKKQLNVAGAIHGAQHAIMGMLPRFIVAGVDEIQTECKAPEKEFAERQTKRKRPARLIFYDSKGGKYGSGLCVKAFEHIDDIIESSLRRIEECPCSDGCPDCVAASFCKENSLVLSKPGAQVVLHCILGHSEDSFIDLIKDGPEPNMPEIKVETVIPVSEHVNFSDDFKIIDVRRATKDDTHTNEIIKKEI
Assay: EMSA; 0.2-5 nM protein; 7.5 mM MgOAc; no ATP stated; EMSA: 0.1 nM labelled DNA, 25 mM Na-HEPES pH 8.0, 5% glycerol, 50 mM NaOAc pH 7.6, 150 µM NaCl, 7.5 mM MgOAc, 0.01% Tween-20, 30 min at 30 °C; 8% 19:1 gel in 1x TBE
Details: protein: recombinant; label: 5'-32P; single strand

TTTTTTTTTTTTTTTTTTTTTTTTTTTTTT (ssDNA) [poly(dT) 30mer]: binds.
